# Assay results reported in patent publication US20190117763A1.
# Molecular target: wildtype PV1 VLPs (74S empty capsids, N-antigenic form) (poliovirus serotype 1 (PV1), Mahoney strain) (UniProt P03300)
# UniProt P03300, sequence (P03300 2-341 limits assumed, chain 1 of 3): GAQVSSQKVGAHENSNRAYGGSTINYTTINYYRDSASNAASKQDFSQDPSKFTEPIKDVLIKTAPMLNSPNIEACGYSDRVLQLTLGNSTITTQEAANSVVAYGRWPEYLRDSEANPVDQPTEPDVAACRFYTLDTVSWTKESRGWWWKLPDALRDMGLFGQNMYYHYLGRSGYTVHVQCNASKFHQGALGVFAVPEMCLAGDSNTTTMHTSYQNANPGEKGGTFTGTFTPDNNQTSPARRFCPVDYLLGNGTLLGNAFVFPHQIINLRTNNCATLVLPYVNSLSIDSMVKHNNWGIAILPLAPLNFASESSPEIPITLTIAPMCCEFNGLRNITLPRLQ
# UniProt P03300, sequence (P03300 342-579 limits assumed, chain 2 of 3): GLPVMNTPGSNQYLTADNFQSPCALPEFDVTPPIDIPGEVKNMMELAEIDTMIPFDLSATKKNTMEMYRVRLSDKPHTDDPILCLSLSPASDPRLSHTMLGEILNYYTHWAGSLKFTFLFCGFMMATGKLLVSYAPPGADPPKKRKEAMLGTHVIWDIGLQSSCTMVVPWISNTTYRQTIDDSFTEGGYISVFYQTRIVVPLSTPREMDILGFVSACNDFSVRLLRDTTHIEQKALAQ
# UniProt P03300, sequence (P03300 580-881 limits assumed, chain 3 of 3): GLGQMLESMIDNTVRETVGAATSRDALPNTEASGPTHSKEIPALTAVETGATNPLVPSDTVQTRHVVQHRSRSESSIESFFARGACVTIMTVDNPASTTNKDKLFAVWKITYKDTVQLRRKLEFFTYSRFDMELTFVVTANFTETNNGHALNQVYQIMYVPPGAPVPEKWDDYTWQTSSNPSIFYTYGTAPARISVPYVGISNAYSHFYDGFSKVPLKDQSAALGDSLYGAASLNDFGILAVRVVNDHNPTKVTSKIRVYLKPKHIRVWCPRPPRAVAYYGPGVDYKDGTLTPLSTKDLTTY
substance,measurement,value
Novus 14D2(7C5) monoclonal antibody,N-antigenic units/µl (N-antigenic units/µl),6.15
